Data published in publication PMC2783756 (Biochemistry, 2009).

Assays:
[1] = tested on: medium-chain acyl-CoA dehydrogenase; conditions: activity drops significantly for changes in temperature as small as 3 °C; ref [21]; cited from earlier work
DNA = conditions: previously observed for N-terminal construct; ref [6]; cited from earlier work
NKX3.1 homeodomain = assay: CD thermal unfolding of NKX3.1 constructs; type: physicochemical; conditions: with and without His tag sequence; within error (±1 °C)

B1: Y42H allele of human medium-chain acyl-CoA dehydrogenase: Y42H allele of human medium-chain acyl-CoA dehydrogenase (protein, UniProt P11310 26-421, looked up, variant Y42H)
Medium-chain specific …: KANRQREPGLGFSFEFTEQQKEFQATARKFAREEIIPVAAEHDKTGEYPVPLIRRAWELGLMNTHIPENCGGLGLGTFDACLISEELAYGCTGVQTAIEGNSLGQMPIIIAGNDQQKKKYLGRMTEEPLMCAYCVTEPGAGSDVAGIKTKAEKKGDEYIINGQKMWITNGGKANWYFLLARSDPDPKAPANKAFTGFIVEADTPGIQIGRKELNMGQRCSDTRGIVFEDVKVPKENVLIGDGAGFKVAMGAFDKTRPVVAAGAVGLAQRALDEATKYALERKTFGKLLVEHQAISFMLAEMAMKVELARMSYQRAAWEVDSGRRNTYYASIAKAFAGDIANQLATDAVQILGGNGFNTEYPVEKLMRDAKIYQIYEGTSQIQRLIVAREHIDKYKN
- Thermal stability and activity [1]: lower thermal stability

B2: 1–184: NKX3.1 (1–184) construct, recombinant with N-terminal hexahistidine sequence (protein, UniProt Q99801 1-184, looked up, fragment)
chain: MLRVPEPRPGEAKAEGAAPPTPSKPLTSFLIQDILRDGAQRQGGRTSSQRQRDPEPEPEPEPEGGRSRAGAQNDQLSTGPRAAPEEAETLAETEPERHLGSYLLDSENTSGALPRLPQTPKQPQKRSRAAFSHTQVIELERKFSHQKYLSAPERAHLAKNLKLTETQVKIWFQNRRYKTKRKQL
modifications: N-terminal His6 tag
- DNA binding (DNA): weaker DNA binding

B3: 114–184: NKX3.1 homeodomain construct, recombinant with N-terminal hexahistidine sequence (protein, UniProt Q99801 114-184, looked up, fragment)
chain: PRLPQTPKQPQKRSRAAFSHTQVIELERKFSHQKYLSAPERAHLAKNLKLTETQVKIWFQNRRYKTKRKQL
modifications: N-terminal His6 tag
- Effect of His tag on unfolding transition temperature (NKX3.1 homeodomain): the same unfolding transition temperature within error
